Substitutions are numbered along the chain they refer to.
Experiments:
HIV-1 Tat [1] = molecular target: T1, HIV-1 Tat (Human immunodeficiency virus 1, UniProt P04608 P04608:1-86); experiment: filter; D1/2 160 nM; about 2.5-fold lower affinity; complex in EMSA; settings: stem-loop with 2-nt bulge
HIV-1 Tat [2] = molecular target: T1, HIV-1 Tat; experiment: filter; D1/2 420 nM in table (290 nM in text); no complex in EMSA; settings: stem-loop without bulge
HIV-1 Tat [3] = molecular target: T1, HIV-1 Tat; experiment: competition; D1/2 vs 10 nM 59-mer probe (59-mer 40 nM); 60 nM vs 29-mer probe; settings: hairpin with U-rich bulge and loop
HIV-1 Tat [4] = molecular target: T1, HIV-1 Tat; experiment: competition; D1/2; unmodified 18+15 duplex 65 nM; 59-mer 18 nM; settings: duplex with bulge
HIV-1 Tat [5] = molecular target: T1, HIV-1 Tat; experiment: competition; D1/2; 18+15 duplex probe; 59-mer 18 nM; settings: duplex with UUU bulge, no apical loop
Rev = settings: references 33, 34; read-out: Kd of Rev-RRE complex; cited from earlier work
HIV-1 Tat [6] = molecular target: T1, HIV-1 Tat; experiment: filter; D1/2 66 nM; complex in EMSA; settings: stem-loop with bulge
HIV-1 Tat [7] = molecular target: T1, HIV-1 Tat; experiment: filter; D1/2 76 nM; compensatory mutation restores binding; settings: stem-loop with bulge
HIV-1 Tat [8] = molecular target: T1, HIV-1 Tat; experiment: filter; D1/2 680 nM; no complex in EMSA; settings: stem-loop, upper stem disrupted
HIV-1 Tat [9] = molecular target: T1, HIV-1 Tat; experiment: filter; no complex in EMSA; settings: stem-loop

B1: HIV-2 TAR RNA first stem-loop (ssRNA)
RNA: CUGCGGAGAGGCUGGCAGAUUGAGCCCUGGGAGGUUCUCUCCAGCACUAGCAG
Kd (HIV-1 Tat [1]): 30 nM

B2: TAR delta U (bulge) (ssRNA)
RNA: GGGUCUCUCUGGUUAGACCAGAGAGCCUGGGAGCUCUCUGGCUAACUAGGGAACCC
Kd (HIV-1 Tat [2]): > 70 nM

GCCAGAUUUGAGCCUGGGAGCUCUCUGGC (ssRNA) [29-mer top part of TAR]
IC50 (HIV-1 Tat [3]): 100 nM

B3: 18+15 duplex 4-thioT-25 (dsRNA)
RNA 1: AGCCAGAUUTGAGCAGCU
RNA 2: AGCUGCUCUCUGGCU
modifications: 4-thio-2'-deoxythymidine at U25 (nt 10) [10 (strand 1, 4-thio-2'-deoxythymidine)]
IC50 (HIV-1 Tat [4]): 12 nM

B4: 18-mer + 15-mer TAR duplex (dsRNA)
RNA 1: AGCCAGAUUUGAGCAGCU
RNA 2: AGCUGCUCUCUGGCU
IC50 (HIV-1 Tat [5]): 65 nM

B5: RRE: rev-responsive element, 243-nucleotide long sequence within the env gene (nucleic acid)
chain: CAGUGGGAAUAGGAGCUUUGUUCCUUGGGUUCUUGGGAGCAGCAGGAAGCACUAUGGGCGCAGCGUCAAUGACGCUGACGGUACAGGCCAGACAAUUAUUGUCUGGUAUAGUGCAGCAGCAGAACAAUUUGCUGAGGGCUAUUGAGGCGCAACAGCAUCUGUUGCAACUCAAGUCUGGGGCAUCAAGCAGCUCCAGGCAAGAAUCCUGGCUGUGGAAAGAUACCUAAAGGAUCAACAGCUCCU
Kd (Rev): 3 nM

B6: TAR G to U (loop) (ssRNA)
RNA: GGGUCUCUCUGGUUAGACCAGAUUUGAGCCUUUUAGCUCUCUGGCUAACUAGGGAACCC
Kd (HIV-1 Tat [6]): 25 nM

B7: TAR G28 to C28; C37 to G37 (ssRNA)
RNA: B6 RNA with G28C, U32G, U33G, U34G, C37G
Kd (HIV-1 Tat [7]): 24 nM

B8: TAR G28 to C28 (ssRNA)
RNA: B6 RNA with G28C, U32G, U33G, U34G
Kd (HIV-1 Tat [8]): > 100 nM

B9: Antisense TAR (ssRNA)
RNA: GGGUUCCCUAGUUAGCCAGAGAGCUCCCAGGCUCAAAUCUGGUCUAACCAGAGAGACCC
Kd (HIV-1 Tat [9]): > 140 nM

— US5821046A, “RNA oligonucleotides that bind HIV tat protein” (RiboTargets Holdings PLC, priority 1990, dated 1998)
